Measurements as given in PMC9048679, “Correlation Between Improved Mating Efficiency and Weakened Scaffold-Kinase Interaction in the Mating Pheromone Response Pathway Revealed by Interspecies Complementation” (Frontiers in Microbiology, 2022).

T1: KmSte7 (Ste7 of Kluyveromyces marxianus), Gal4-BD fusion (K. marxianus, UniProt A0ABX6F0V6 1-494)
T1 construct: Ste7 (MAPKK) of Kluyveromyces marxianus, KEGG KLMA_70246; ORF cloned into the EcoRI site of pGBKT7; source: yeast two-hybrid fusion (pGBKT7, transformed into Y187, diploid with AH109)
T1 sequence (looked up): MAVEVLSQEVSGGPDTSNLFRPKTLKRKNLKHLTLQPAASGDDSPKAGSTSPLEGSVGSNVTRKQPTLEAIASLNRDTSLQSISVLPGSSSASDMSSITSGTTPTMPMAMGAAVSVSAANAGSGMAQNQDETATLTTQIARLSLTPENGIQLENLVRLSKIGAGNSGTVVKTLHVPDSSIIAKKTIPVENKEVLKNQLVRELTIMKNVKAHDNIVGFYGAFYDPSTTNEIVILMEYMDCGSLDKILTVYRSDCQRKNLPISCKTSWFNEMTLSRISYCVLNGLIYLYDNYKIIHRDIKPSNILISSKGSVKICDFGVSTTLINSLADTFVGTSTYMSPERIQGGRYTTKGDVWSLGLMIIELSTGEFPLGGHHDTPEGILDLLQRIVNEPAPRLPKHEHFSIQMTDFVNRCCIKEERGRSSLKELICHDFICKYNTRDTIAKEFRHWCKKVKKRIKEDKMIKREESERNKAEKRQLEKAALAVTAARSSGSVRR

T2: KlSte7 (Ste7 of Kluyveromyces lactis), Gal4-BD fusion (K. lactis, UniProt Q6CSZ8 1-504)
T2 construct: Ste7 (MAPKK) of Kluyveromyces lactis, KEGG KLLA0_C16577g; ORF cloned into the EcoRI site of pGBKT7; source: yeast two-hybrid fusion (pGBKT7, transformed into Y187, diploid with AH109)
T2 sequence (looked up): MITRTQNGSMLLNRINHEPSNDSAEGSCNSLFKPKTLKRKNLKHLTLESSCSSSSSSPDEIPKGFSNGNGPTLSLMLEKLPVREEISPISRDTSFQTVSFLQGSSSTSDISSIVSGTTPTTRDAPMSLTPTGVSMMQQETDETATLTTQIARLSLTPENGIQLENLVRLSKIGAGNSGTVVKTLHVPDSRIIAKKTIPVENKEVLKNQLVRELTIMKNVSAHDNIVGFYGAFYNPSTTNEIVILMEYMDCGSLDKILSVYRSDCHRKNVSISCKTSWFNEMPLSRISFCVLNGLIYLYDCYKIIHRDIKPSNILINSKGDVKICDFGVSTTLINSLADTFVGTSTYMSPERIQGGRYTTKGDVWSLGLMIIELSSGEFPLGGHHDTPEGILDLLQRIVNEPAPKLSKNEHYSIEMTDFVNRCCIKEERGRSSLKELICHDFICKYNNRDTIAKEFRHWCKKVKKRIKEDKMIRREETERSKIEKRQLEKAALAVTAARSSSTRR

B1: KlSte5 (Ste5 of Kluyveromyces lactis), Gal4-AD fusion (natural protein, K. lactis, UniProt Q6CKB4 1-746, looked up)
chain: MSRGNTSSMNSQDILFQLTNVGSSPVPKLDTGSTSGSNTSSPRRWTELFSKKRVKTPSVGTPSTASSMISSFYDSSPIRPVSKQHPKHLLVDPIMPPPPIMLSPIGHETLGKKPTRKNGNKSWKNERCCICGDLCSFKGSNEKVIPLECNHMCHEDCLMVSLRPLPHKSNLYDALPKCDICSMSCIPGQEDMRQKVRSHLLTLPDDGESVGLEPYNPQENYERIKLCDADLLPKHSGNDETFPHLQTTRTTARNNDIRLSFAFSLKPGKTVTPSLRDSIRLHRSRSIKRRSNFRGSTVSGLSSIVSSSSKDDCQLPSLHVQRQYFIQAFLNSFSEVKPWEIDAKYGLLRLIDNFLISLDGINFQHQVCYLFSEYLLVCRPSPATSANVLQFSSYRCFQLNNPPELDLLDATTLESKSRSGERILIKPYGLDTKALEKWITALFDLTLPFGNYDFTSIKVPEFVACIPSTNDTGTIIVRRQSTLNETLIPKTIRDSSVLTSISSILSIKRATPNELNLVLQLDKRKTNEDNIVSIKNVILALTWKFSTFNCCIVDVEGMVINCGTANDVLNSLAGPIKSNGNQPFSPDLLHQLWYRQKQKICKNVGVVVLSNSSMENGKSCLFSDYRIFADAGKRHPNELKIKVGFLNVDYSDNIKELVEIQDWNELLEAVAYSFNLSFDDDLDSSDCVSTSSSDFEVDSVPDKNRTFRLSSPISWENHVQADLTGSMNGISESIEDRQSNHMYDYL
notes: Ste5 of Kluyveromyces lactis, KEGG KLLA0_F12023g; probably the whole ORF; source: yeast two-hybrid fusion (pGADT7, transformed into AH109, diploid with Y187)
B2: KmSte5 (Ste5 of Kluyveromyces marxianus), Gal4-AD fusion (natural protein, K. marxianus, UniProt A0ABX6ETE1 1-763, looked up)
chain: MNSQEILFQLTNVGSTPVSSKNDTMTTPTSGSNTSSPRRWTELFSKKRAKTPSISTPSTSSSAVSSLHDGSPVRPGSKQSFRHFNIDSALQYPPVMQSPESYHSAGNGNGSGHGNVQVGKKPHRRGGNKSWKNEKCCICRDLCSFKGSTERVIILQCNHMCHEDCLMVSLNPVSKTFDLYDALPKCQMCSMLCVPSQEDMKQRLRNHLLTVNSSSSDQLSSAIPQVQSQLKPHNSPENTRTGIGPLAPPPPPLSMRNAVKTTPTNRDIRLSFASSLKPPVFVTPSVRDSWRLPRASSIKRRSNNYRGSTISALSSITSSSSLYNDSQLVCSLHIQRQYFMQAFLTSFEEIKPWEIDSRYGLLRLIDYFLISLDDQGFKQCCCYLFSEYLLLCQPSSKASSNVLQFSSYRFLQLNSPANIELIDATTLELKAKTGERVRIKPFNSDTKSLEKWITAFFDPTLTFGNLDFTSIPLPDFVSAMPSADDSRTIIVRRQNTINETIVTAGPRDSTLFTSISSILSIKRSTPRELNVILQVDRRKLKSENLITIKNVLSALTWKYHDFNCCIVGVDGLIVKIGGAREILDSWAEISDAGTQPFSPALLYKTWYKERGKVCNNAGVLVISNASMETGKTCLFHDYRMFANVGKRHVNELKIKVGFLNVDYTNKIKELVEIQDWNELLEAVSYSFNINFDDDDDDDDDEGDSDTSDSFSVGSSEFNKSLNSDNERLVRPPSPTSFEDIEADSHSQFDDDSELQHSIIYDYL
notes: Ste5 of Kluyveromyces marxianus, KEGG KLMA_20171; probably the whole ORF; also called natural KmSte5; source: yeast two-hybrid fusion (pGADT7, transformed into AH109, diploid with Y187)

Columns and labels:
Assay in all cases: two-hybrid; Matchmaker GAL4 system; Ste5 forms on Gal4-AD (pGADT7, AH109), Ste7 orthologs on Gal4-BD (pGBKT7, Y187), diploids on SC-Leu-Trp; quantitative β-galactosidase assay of cell lysate with ONPG; units of the same BD-Ste7 with void pGADT7 subtracted; mean of three colonies
[1] = target: KlSte7 (Ste7 of Kluyveromyces lactis), Gal4-BD fusion (K. lactis) (UniProt Q6CSZ8)
[2] = target: KmSte7 (Ste7 of Kluyveromyces marxianus), Gal4-BD fusion (K. marxianus)
[3] = target: T1, KmSte7 (Ste7 of Kluyveromyces …); settings: partners not purified
[4] = target: T2, KlSte7 (Ste7 of Kluyveromyces lactis), …; settings: partners not purified

Molecule | strength of the interaction (units of β-galactosidase) (units of β-galactosidase) [1] | strength of the interaction (units of β-galactosidase) (units of β-galactosidase) [2] | strength of the interaction (units of β-galactosidase) [3] | strength of the interaction (units of β-galactosidase) [4]
KlSte5-KmBD (KlSte5 with its Ste7-binding region replaced by that of KmSte5), Gal4-AD fusion (from UniProt A0ABX6ETE1 660-763) | 20.3 | 11 | – | –
KmSte5-KlBD (KmSte5 with its Ste7-binding region replaced by that of KlSte5), Gal4-AD fusion (from UniProt A0ABX6ETE1 1-659) | 31.8 | 14.9 | – | –
B1 | – | – | 8.13 units of β-galactosidase | 13.7 units of β-galactosidase
B2 | – | – | 22.8 units of β-galactosidase | 30 units of β-galactosidase
